B1: B. subtilis GlmM_(F369) variant lacking the C-terminal domain 4, His-tagged (domain or fragment, UniProt O34824 1-369, looked up)
chain: MGKYFGTDGVRGVANSELTPELAFKVGRFGGYVLTKDKQRPKVLIGRDTRISGHMLEGALVAGLLSIGAEVMRLGVISTPGVSYLTKAMDAEAGVMISASHNPVQDNGIKFFGGDGFKLSDEQEAEIERLMDEPEDKLPRPVGADLGLVNDYFEGGQKYLQFLKQTADEDFTGIHVALDCANGATSSLATHLFADLDADVSTMGTSPNGLNINDGVGSTHPEALSAFVKEKNADLGLAFDGDGDRLIAVDEKGNIVDGDQIMYICSKHLKSEGRLKDDTVVSTVMSNLGFYKALEKEGIKSVQTAVGDRYVVEAMKKDGYNVGGEQSGHLIFLDYNTTGDGLLSAIMLMNTLKATGKPLSELAAEMQKF
notes: GlmM of B. subtilis strain 168, residues Met1 to Phe369 (domains 1 to 3, lacking the flexible C-terminal domain 4); also called truncated GlmM; glmM_(F369)-his; source: E. coli BL21(DE3), purified (Ni-NTA, SEC); also in lysate, mixed with the partner's lysate before Ni-NTA and SEC; not shown: His6, C-terminal, kept
B2: full-length B. subtilis GlmM (phosphoglucosamine mutase), His-tagged (enzyme, UniProt O34824 1-448, looked up)
chain: MGKYFGTDGVRGVANSELTPELAFKVGRFGGYVLTKDKQRPKVLIGRDTRISGHMLEGALVAGLLSIGAEVMRLGVISTPGVSYLTKAMDAEAGVMISASHNPVQDNGIKFFGGDGFKLSDEQEAEIERLMDEPEDKLPRPVGADLGLVNDYFEGGQKYLQFLKQTADEDFTGIHVALDCANGATSSLATHLFADLDADVSTMGTSPNGLNINDGVGSTHPEALSAFVKEKNADLGLAFDGDGDRLIAVDEKGNIVDGDQIMYICSKHLKSEGRLKDDTVVSTVMSNLGFYKALEKEGIKSVQTAVGDRYVVEAMKKDGYNVGGEQSGHLIFLDYNTTGDGLLSAIMLMNTLKATGKPLSELAAEMQKFPQLLVNVRVTDKYKVEENEKVKAVISEVEKEMNGDGRILVRPSGTEPLVRVMAEAKTKELCDEYVNRIVEVVRSEMGLE
notes: GlmM of B. subtilis strain 168, full-length protein; also called glmM-his; phosphoglucomutase GlmM; source: E. coli BL21(DE3), purified (Ni-NTA, SEC); also in lysate, mixed with the partner's lysate before Ni-NTA and SEC; not shown: His6, C-terminal, kept
B3: B. subtilis CdaA catalytic domain (CdaACD), His-tagged (domain or fragment, UniProt Q45589 97-273, looked up)
chain: FFSRSGTPVEEAQQKTIEAITKAINYMAKRRIGALLTIERDTGMGDYIETGIPLNAKVSSELLINIFIPNTPLHDGAVIMKNNEIAAAACYLPLSESPFISKELGTRHRAAVGISEVTDSLTIIVSEETGGVSVAKNGDLHRELTEEALKEMLEAEFKKNTRDTSSNRWYWRGKKNG
notes: C-terminal catalytic (DAC) domain of the c-di-AMP cyclase CdaA of B. subtilis strain 168, starting from amino acid Phe97; The His tag is thrombin cleavable; For MST the protein was labelled with an amine-reactive dye (Monolith Protein Labeling RED-NHS 2nd Generation kit); also called soluble catalytic domain of the c-di-AMP cyclase CdaA; his-cdaACD; source: E. coli BL21(DE3), purified (Ni-NTA, …)
B4: tag-less B. subtilis CdaACD (domain or fragment, UniProt Q45589 97-273, looked up)
chain: B3 chain
notes: C-terminal catalytic (DAC) domain of the c-di-AMP cyclase CdaA of B. subtilis strain 168, starting from amino acid Phe97; also called tag less CdaACD; source: E. coli BL21(DE3), purified (Ni-NTA, SEC), His tag removed with thrombin, SEC; not shown: His6, N-terminal, cleaved

Columns and labels:
[1] = target: the molecule itself; assay: crystal structure; purified CdaACD:GlmM_(F369) complex at 10 mg/ml, two conditions (complex 1, 3.6 A; complex 2, 4.2 A); three complexes in the asymmetric unit
[2] = target: the molecule itself; assay: SEC-SAXS; purified proteins or purified complexes (CdaACD 5 mg/ml, GlmM 24 mg/ml, CdaACD:GlmM 24 mg/ml, CdaACD:GlmM_(F369) 10 mg/ml) on a Shodex KW403 column in 30 mM Tris pH 7.5, 150 mM NaCl, with continuous SAXS data collection; envelopes fitted with the crystal structures
[3] = target: B2; assay: MST; fluorescently labelled (RED-NHS) CdaACD at 25 nM final, unlabelled GlmM 0.78 uM to 800 uM final; 10 mM HEPES pH 7.5, 150 mM NaCl, 0.05% Tween-20; Monolith NT.115, LED power 95%, MST power 80%; five runs; conditions: both partners purified
[4] = target: the molecule itself; assay: crystal structure; tag-less CdaACD at 4 mg/ml; 0.1 M sodium cacodylate pH 6.5, 0.1 M ammonium sulfate, 0.3 M sodium formate, 6% PEG 8000, 3% gamma-PGA; dimer in the asymmetric unit; 2.8 A

Binder: B1
- stoichiometry N [1]: 2

Binder: B2
- stoichiometry N [2]: 2

Binder: B3
- stoichiometry N [1]: 2
- Kd [3]: 14.4 ± 0.962 µM

Binder: B4
- stoichiometry N [4]: 2
